Several values for one entry are separate records, joined by “and”; a condition that tells them apart may be missing. Equal entries are not always repeated.
Biological target: Burkholderia pseudomallei Class 2 OLD protein, full-length (Bp^FL, residues 1-594) (Burkholderia pseudomallei)
Test: SEC-MALS

## Burkholderia pseudomallei Class 2 OLD protein, full-length (Bp^FL, residues 1-594) (enzyme)
  stoichiometry N: 2 and 4
